# Source: the supplement of paper PMC10567573
# B1: TMEM106C (parent)
# chain: FTGRDSITCLTCQGTGYIPTEQVN
# Variants of: B1
# Assay: protein stability index of a GFP-peptide fusion (GPS, HEK-293T) (PSI 1-6); higher = more stable
# Settings: c terminus: a fixed tail appended
# 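Also: lentivirally expressed fusions sorted by FACS into six bins by GFP to DsRed ratio, PSI derived from sequencing read proportions per bin multiplied by bin number.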
row,Variant,protein stability index
1,FTGRYSITCLTCQGTGYIPTEQVN,3.35
2,FTGRDAITCLTCQGTGYIPTEQVN,2.27
3,FTGRDCITCLTCQGTGYIPTEQVN,1.99
4,FTGRDDITCLTCQGTGYIPTEQVN,2.58
5,FTGRDEITCLTCQGTGYIPTEQVN,2.73
6,FTGRDFITCLTCQGTGYIPTEQVN,2.38
7,FTGRDGITCLTCQGTGYIPTEQVN,1.9
8,FTGRDHITCLTCQGTGYIPTEQVN,2.43
9,FTGRDIITCLTCQGTGYIPTEQVN,2.92
10,FTGRDKITCLTCQGTGYIPTEQVN,2.34
11,FTGRDLITCLTCQGTGYIPTEQVN,2.16
12,FTGRDMITCLTCQGTGYIPTEQVN,1.79
13,FTGRDNITCLTCQGTGYIPTEQVN,2.58
14,FTGRDPITCLTCQGTGYIPTEQVN,2.18
15,FTGRDQITCLTCQGTGYIPTEQVN,2.05
16,FTGRDRITCLTCQGTGYIPTEQVN,2.45
17,FTGRDTITCLTCQGTGYIPTEQVN,2.43
18,FTGRDVITCLTCQGTGYIPTEQVN,2.5
19,FTGRDYITCLTCQGTGYIPTEQVN,2.04
20,FTGRDSATCLTCQGTGYIPTEQVN,2.22
21,FTGRDSCTCLTCQGTGYIPTEQVN,1.73
22,FTGRDSDTCLTCQGTGYIPTEQVN,2.83
23,FTGRDSETCLTCQGTGYIPTEQVN,2.89
24,FTGRDSFTCLTCQGTGYIPTEQVN,1.6

row,Variant,protein stability index
1,FTGRDSGTCLTCQGTGYIPTEQVN,2.16
2,FTGRDSHTCLTCQGTGYIPTEQVN,2.09
3,FTGRDSKTCLTCQGTGYIPTEQVN,2.32
4,FTGRDSLTCLTCQGTGYIPTEQVN,2.07
5,FTGRDSMTCLTCQGTGYIPTEQVN,1.76
6,FTGRDSNTCLTCQGTGYIPTEQVN,2.15
7,FTGRDSPTCLTCQGTGYIPTEQVN,2.23
8,FTGRDSQTCLTCQGTGYIPTEQVN,2.5
9,FTGRDSRTCLTCQGTGYIPTEQVN,2.15
10,FTGRDSSTCLTCQGTGYIPTEQVN,2.39
11,FTGRDSTTCLTCQGTGYIPTEQVN,2.78
12,FTGRDSVTCLTCQGTGYIPTEQVN,1.77
13,FTGRDSWTCLTCQGTGYIPTEQVN,3.32
14,FTGRDSYTCLTCQGTGYIPTEQVN,2.68
15,FTGRDSIACLTCQGTGYIPTEQVN,2.91
16,FTGRDSICCLTCQGTGYIPTEQVN,2.11
17,FTGRDSIDCLTCQGTGYIPTEQVN,2.37
18,FTGRDSIECLTCQGTGYIPTEQVN,1.84
19,FTGRDSIFCLTCQGTGYIPTEQVN,3.56
20,FTGRDSIHCLTCQGTGYIPTEQVN,2.28
21,FTGRDSIICLTCQGTGYIPTEQVN,1.82
22,FTGRDSIKCLTCQGTGYIPTEQVN,1.79
23,FTGRDSILCLTCQGTGYIPTEQVN,2
24,FTGRDSIMCLTCQGTGYIPTEQVN,2.4

row,Variant,protein stability index
1,FTGRDSINCLTCQGTGYIPTEQVN,1.92
2,FTGRDSIPCLTCQGTGYIPTEQVN,1.9
3,FTGRDSIQCLTCQGTGYIPTEQVN,2.37
4,FTGRDSIRCLTCQGTGYIPTEQVN,1.41
5,FTGRDSISCLTCQGTGYIPTEQVN,2.4
6,FTGRDSIVCLTCQGTGYIPTEQVN,2.09
7,FTGRDSIWCLTCQGTGYIPTEQVN,2.22
8,FTGRDSIYCLTCQGTGYIPTEQVN,2.15
9,FTGRDSITALTCQGTGYIPTEQVN,2
10,FTGRDSITDLTCQGTGYIPTEQVN,3.16
11,FTGRDSITELTCQGTGYIPTEQVN,2.73
12,FTGRDSITFLTCQGTGYIPTEQVN,2.86
13,FTGRDSITGLTCQGTGYIPTEQVN,1.75
14,FTGRDSITHLTCQGTGYIPTEQVN,1.73
15,FTGRDSITILTCQGTGYIPTEQVN,3.25
16,FTGRDSITKLTCQGTGYIPTEQVN,2.17
17,FTGRDSITLLTCQGTGYIPTEQVN,2.04
18,FTGRDSITMLTCQGTGYIPTEQVN,2.88
19,FTGRDSITNLTCQGTGYIPTEQVN,1.94
20,FTGRDSITPLTCQGTGYIPTEQVN,2.1
21,FTGRDSITQLTCQGTGYIPTEQVN,1.68
22,FTGRDSITRLTCQGTGYIPTEQVN,1.52
23,FTGRDSITSLTCQGTGYIPTEQVN,2.28
24,FTGRDSITTLTCQGTGYIPTEQVN,1.82

row,Variant,protein stability index
1,FTGRDSITVLTCQGTGYIPTEQVN,1.9
2,FTGRDSITYLTCQGTGYIPTEQVN,2.75
3,FTGRDSITCATCQGTGYIPTEQVN,2.29
4,FTGRDSITCCTCQGTGYIPTEQVN,1.99
5,FTGRDSITCDTCQGTGYIPTEQVN,3.96
6,FTGRDSITCETCQGTGYIPTEQVN,3.8
7,FTGRDSITCFTCQGTGYIPTEQVN,3
8,FTGRDSITCGTCQGTGYIPTEQVN,2.02
9,FTGRDSITCHTCQGTGYIPTEQVN,2.84
10,FTGRDSITCITCQGTGYIPTEQVN,1.98
11,FTGRDSITCKTCQGTGYIPTEQVN,2.7
12,FTGRDSITCMTCQGTGYIPTEQVN,1.91
13,FTGRDSITCNTCQGTGYIPTEQVN,2.77
14,FTGRDSITCPTCQGTGYIPTEQVN,4.51
15,FTGRDSITCQTCQGTGYIPTEQVN,3.17
16,FTGRDSITCRTCQGTGYIPTEQVN,2.36
17,FTGRDSITCSTCQGTGYIPTEQVN,2.85
18,FTGRDSITCTTCQGTGYIPTEQVN,2.65
19,FTGRDSITCVTCQGTGYIPTEQVN,2.2
20,FTGRDSITCWTCQGTGYIPTEQVN,2.01
21,FTGRDSITCYTCQGTGYIPTEQVN,3.42
22,FTGRDSITCLACQGTGYIPTEQVN,2.32
